One block for each molecule: values may come before it.
Columns and labels:
Assay in all cases: SEC-MALS; size exclusion chromatography with multi-angle light scattering of Ni-purified uricases dialyzed into PBS; noncovalent molecular weight compared with the theoretical tetramer
[1] = target: Deinococcus geothermalis uricase (Deinococcus geothermalis)
[2] = target: Deinococcus radiodurans uricase (Deinococcus radiodurans)
[3] = target: Granulicella tundricola uricase (Granulicella tundricola)
[4] = target: Kyrpidia tusciae uricase (Kyrpidia tusciae)
[5] = target: Solibacter usitatus uricase (Solibacter usitatus)
[6] = target: Terriglobus saanensis uricase (Terriglobus saanensis)
[7] = target: the molecule itself

Molecule: Deinococcus geothermalis uricase (enzyme)
- stoichiometry N [1]: 4

Molecule: Deinococcus radiodurans uricase (enzyme)
- stoichiometry N [2]: 4

Molecule: Granulicella tundricola uricase (enzyme)
- stoichiometry N [3]: 4

B1: Arthrobacter globiformis uricase (C-terminally truncated by 11 amino acids, N-terminal His tag) (enzyme, UniProt D0VWQ1 1-291, looked up)
chain: MTATAETSTGTKVVLGQNQYGKAEVRLVKVTRNTARHEIQDLNVTSQLRGDFEAAHTAGDNAHVVATDTQKNTVYAFARDGFATTEEFLLRLGKHFTEGFDWVTGGRWAAQQFFWDRINDHDHAFSRNKSEVRTAVLEISGSEQAIVAGIEGLTVLKSTGSEFHGFPRDKYTTLQETTDRILATDVSARWRYNTVEVDFDAVYASVRGLLLKAFAETHSLALQQTMYEMGRAVIETHPEIDEIKMSLPNKHHFLVDLQPFGQDNPNEVFYAADRPYGLIEATIQREGSRAD
notes: Synthetic gene in a modified pET15b-based vector; also called RGD-containing Arthrobacter globiformis uricase; uricase containing RGD
- stoichiometry N [7]: 4

Results, then the molecule that gave them:

- stoichiometry N [4]: 4
Molecule: Kyrpidia tusciae uricase (enzyme)

- stoichiometry N [5]: 4
Molecule: Solibacter usitatus uricase (enzyme)

- stoichiometry N [6]: 4
Molecule: Terriglobus saanensis uricase (enzyme)
